Test results published in patent publication CN1420129A (ZHONGXIN GUOJIAN PHARMACEUTICA, dated 2003).
Read-outs that look alike come from different tables or passages of the source.

Assays:
Experiment in all cases: cell-based or functional assay
[1] = target: CD20 (on CD20+ B lymphocytes / human B lymphoma cell line DHL-4) (human) (UniProt P11836)
[2] = target: CD20 (on CD20+ B lymphocytes / human B lymphoma cell line DHL-4) (human) (UniProt P11836); remark: listed apart in the source
[3] = target: T1, CD20 (on CD20+ B lymphocytes / human B lymphoma cell line DHL-4) (human, UniProt P11836 1-297)
T1 sequence (looked up): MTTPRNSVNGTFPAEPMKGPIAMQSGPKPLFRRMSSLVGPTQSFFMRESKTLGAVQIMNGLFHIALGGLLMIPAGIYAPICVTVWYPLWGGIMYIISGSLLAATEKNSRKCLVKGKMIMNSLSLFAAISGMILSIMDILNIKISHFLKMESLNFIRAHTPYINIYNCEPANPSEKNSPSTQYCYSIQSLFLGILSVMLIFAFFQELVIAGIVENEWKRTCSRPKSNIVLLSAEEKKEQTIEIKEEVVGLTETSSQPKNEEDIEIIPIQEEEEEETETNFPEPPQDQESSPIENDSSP

存活细胞% (DHL-4 CD20+ cells, cell count and MTT, day 5-7) at 1 μg/ml [3] | 存活细胞% (DHL-4 CD20+ cells, cell count and MTT, day 5-7) at 10 μg/ml [3] | 存活细胞% (DHL-4 CD20+ cells, cell count and MTT, day 5-7) at 100 μg/ml [3] | Molecule | 存活细胞% (DHL-4 CD20+ cells, cell count and MTT, day 5-7) at 1 μg/ml (% surviving cells) [1] | 存活细胞% (DHL-4 CD20+ cells, cell count and MTT, day 5-7) at 10 μg/ml (% surviving cells) [1] | 存活细胞% (DHL-4 CD20+ cells, cell count and MTT, day 5-7) at 100 μg/ml (% surviving cells) [1] | 存活细胞% (DHL-4 CD20+ cells, cell count and MTT, day 5-7) at 1 μg/ml (% surviving cells) [2] | 存活细胞% (DHL-4 CD20+ cells, cell count and MTT, day 5-7) at 10 μg/ml (% surviving cells) [2] | 存活细胞% (DHL-4 CD20+ cells, cell count and MTT, day 5-7) at 100 μg/ml (% surviving cells) [2]
– | – | – | Rituximab (antibody) | 66.7 | 32.1 | 19.4 | 50.3 | 12.6 | 29.4
99.6 % surviving cells | 46.5 % surviving cells | 56.7 % surviving cells | 单克隆抗体7D3 (antibody, V domains shown) VH: QAQLQQSGAELVRPGASVKMSCKASGYTFTRYNMHWVKQTPRQGLEWIGYIYPGNGDTNYNQKFKGKATLTVDKSSSTAYMQLSSLTSEDSAVYFCARRTYYSNSYWYFDVWGTGTTVTVSS VL: QIVLTQSPAILSASPGEKVTMTCRASSSVSYMNWYQQKPGSSPKPWIYAPSNLASGVPARFSGSGSGTSYSLTISRVEAEDAATYYCQQWSNNPPTFGAGTKLELKR | – | – | – | – | – | –
110 % surviving cells | 27.3 % surviving cells | 39.4 % surviving cells | 嵌合单抗C7D3 (antibody, human IgG1, V domains shown) VH: QAQLQQSGAELVRPGASVKMSCKASGYTFTRYNMHWVKQTPRQGLEWIGYIYPGNGDTNYNQKFKGKATLTVDKSSSTAYMQLSSLTSEDSAVYFCARRTYYSNSYWYFDVWGTGTTVTVSS VL: QIVLTQSPAILSASPGEKVTMTCRASSSVSYMNWYQQKPGSSPKPWIYAPSNLASGVPARFSGSGSGTSYSLTISRVEAEDAATYYCQQWSNNPPTFGAGTKLELKR | – | – | – | – | – | –
